The subject of data set [1] is HeLa Kyoto. Briefly: solubility in G1/S (NP-40 vs SDS abundance) (log2 ratio); higher = more soluble. As to conditions: cell cycle stage: G1/S.
The test system of data set [2] is HeLa Kyoto. Briefly: melting temperature (median over replicates), in situ; higher = more thermally stable.
The test system of data set [3] is HeLa Kyoto. As to the kind of experiment: solubility change mitosis vs G1/S (difference of NP-40 vs SDS log2 ratios) (log2 ratio difference); higher = more soluble in mitosis.
The test system of data set [4] is HeLa Kyoto. As to the kind of experiment: thermal stability score vs G1/S (z-score of summed log2 fold changes over temperatures); higher = more thermally stable than in G1/S.
Setting [5] is: cell cycle stage: early G1 (4.5 h after nocodazole release).
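Throughout, for melting temperature (median over replicates), in situ: HeLa Kyoto cells synchronized by double thymidine or nocodazole block, proteins quantified by TMT10plex mass spectrometry, three independent biological replicates.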
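Throughout, for solubility change mitosis vs G1/S (difference of NP-40 vs SDS log2 ratios): synchronized HeLa Kyoto cells (double thymidine block for G1/S, nocodazole release for mitosis), protein amounts in NP-40 versus SDS lysates quantified by mass spectrometry, three biological replicates.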
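Throughout, for solubility in G1/S (NP-40 vs SDS abundance): HeLa Kyoto cells arrested at G1/S by double thymidine block, proteins quantified by TMT10plex mass spectrometry in mild NP-40 versus SDS extracts, three biological replicates.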
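Throughout, for thermal stability score vs G1/S (z-score of summed log2 fold changes over temperatures): synchronized HeLa Kyoto cells, proteins quantified by TMT10plex mass spectrometry, three biological replicates, mitosis taken 0.5 h after nocodazole release, G1/S directly after double thymidine block.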

“MAPSSPRPALPALLVLLGALFPGPGNAQTSVSPSKVILPRGGSVLVTCSTSCDQPKLLGIETPLPKKELLLPGNNRKVYELSNVQEDSQPMCYSNCPDGQSTAKTFLTVYWTPERVELAPLPSWQPVGKNLTLRCQVEGGAPRANLTVVLLRGEKELKREPAVGEPAEVTTTVLVRRDHHGANFSCRTELDLRPQGLELFENTSAPYQLQTFVLPATPPQLVSPRVLEVDTQGTVVCSLDGLFPVSEAQVHLALGDQRLNPTVTYGNDSFSAKASVSVTAEDEGTQRLTCAVILGNQSQETLQTVTIYSFPAPNVILTKPEVSEGTEVTVKCEAHPRAKVTLNGVPAQPLGPRAQLLLKATPEDNGRSFSCSATLEVAGQLIHKNQTRELRVLYGPRLDERDCPGNWTWPENSQQTPMCQAWGNPLPELKCLKDGTFPLPIGESVTVTRDLEGTYLCRARSTQGEVTRKVTVNVLSPRYEIVIITVVAAAVIMGTAGLSTYLYNRQRKIKKYRLQQAQKGTPMKPNTQATPP [ICAM1]”: the “solubility in G1/S (log2)” value with HeLa Kyoto [1] stood at 0.303. Moreover, the melting temperature is 56.7 °C with HeLa Kyoto [2] (cell cycle stage: G1/S) and 58.8 °C in the data set on HeLa Kyoto [2] (cell cycle stage: mitosis). Also, in the data set on HeLa Kyoto [3], the “solubility change mitosis (log2)” value is 0.0971. The thermal stability score in the data set on HeLa Kyoto [4] (setting [5]) is -2.15; with HeLa Kyoto [4] (cell cycle stage: mitosis), -2.19.
Regarding “MAPVGGGGRPVGGPARGRLLLAAPVLLVLLWALGARGQGSPQQGTIVGMRLASCNKSCGTNPDGIIFVSEGSTVNLRLYGYSLGNISSNLISFTEVDDAETLHKSTSCLELTKDLVVQQLVNVSRGNTSGVLVVLTKFLRRSESMKLYALCTRAQPDGPWLKWTDKDSLLFMVEEPGRFLPLWLHILLITVLLVLSGIFSGLNLGLMALDPMELRIVQNCGTEKERRYARKIEPIRRKGNYLLCSLLLGNVLVNTSLTILLDNLIGSGLMAVASSTIGIVIFGEILPQALCSRHGLAVGANTILLTKFFMLLTFPLSFPISKLLDFFLGQEIRTVYNREKLMEMLKVTEPYNDLVKEELNMIQGALELRTKTVEDIMTQLQDCFMIRSDAILDFNTMSEIMESGYTRIPVFEDEQSNIVDILYVKDLAFVDPDDCTPLKTITRFYNHPVHFVFHDTKLDAMLEEFKKGKSHLAIVQKVNNEGEGDPFYEVLGLVTLEDVIEEIIKSEILDESDMYTDNRSRKRVSEKNKRDFSAFKDADNELKVKISPQLLLAAHRFLATEVSQFSPSLISEKILLRLLKYPDVIQELKFDEHNKYYARHYLYTRNKPADYFILILQGKVEVEAGKENMKFETGAFSYYGTMALTSVPSDRSPAHPTPLSRSASLSYPDRTDVSTAATLAGSSNQFGSSVLGQYISDFSVRALVDLQYIKITRQQYQNGLLASRMENSPQFPIDGCTTHMENLAEKSELPVVDETTTLLNERNSLLHKASHENAI [CNNM4]”, the “solubility in G1/S (log2)” value in the data set on HeLa Kyoto [1] was -0.12. Further, the melting temperature in the data set with HeLa Kyoto [2] (cell cycle stage: G1/S) was determined as 51.7 °C; in the data set with HeLa Kyoto [2] (cell cycle stage: mitosis) it was 52.1 °C. Moreover, in the data set on HeLa Kyoto [3], the “solubility change mitosis (log2)” value was -0.0459. The thermal stability score was -0.56 in the data set with HeLa Kyoto [4] (setting [5]) and -0.485 with HeLa Kyoto [4] (cell cycle stage: mitosis).
In the case of “MAQAGVVGEVTQVLCAAGGALELPELRRRLRMGLSADALERLLRQRGRFVVAVRAGGAAAAPERVVLAASPLRLCRAHQGSKPGCVGLCAQLHLCRFMVYGACKFLRAGKNCRNSHSLTTEHNLSVLRTHGVDHLSYNELCQLLFQNDPWLLPEICQHYNKGDGPHGSCAFQKQCIKLHICQYFLQGECKFGTSCKRSHDFSNSENLEKLEKLGMSSDLVSRLPTIYRNAHDIKNKSSAPSRVPPLFVPQGTSERKDSSGSVSPNTLSQEEGDQICLYHIRKSCSFQDKCHRVHFHLPYRWQFLDRGKWEDLDNMELIEEAYCNPKIERILCSESASTFHSHCLNFNAMTYGATQARRLSTASSVTKPPHFILTTDWIWYWSDEFGSWQEYGRQGTVHPVTTVSSSDVEKAYLAYCTPGSDGQAATLKFQAGKHNYELDFKAFVQKNLVYGTTKKVCRRPKYVSPQDVTTMQTCNTKFPGPKSIPDYWDSSALPDPGFQKITLSSSSEEYQKVWNLFNRTLPFYFVQKIERVQNLALWEVYQWQKGQMQKQNGGKAVDERQLFHGTSAIFVDAICQQNFDWRVCGVHGTSYGKGSYFARDAAYSHHYSKSDTQTHTMFLARVLVGEFVRGNASFVRPPAKEGWSNAFYDSCVNSVSDPSIFVIFEKHQVYPEYVIQYTTSSKPSVTPSILLALGSLFSSRQ [PARP12]”, the “solubility in G1/S (log2)” value with HeLa Kyoto [1] was -0.201. Besides, the melting temperature in the data set with HeLa Kyoto [2] (cell cycle stage: G1/S) is 49.2 °C; with HeLa Kyoto [2] (cell cycle stage: mitosis), 48.1 °C. In the data set on HeLa Kyoto [3], the “solubility change mitosis (log2)” value is -0.0418. In addition, the thermal stability score in the data set with HeLa Kyoto [4] (setting [5]) turned out to be 1.19; in the data set with HeLa Kyoto [4] (cell cycle stage: mitosis), 1.46.
For the sequence “MAQALSEEEFQRMQAQLLELRTNNYQLSDELRKNGVELTSLRQKVAYLDKEFSKAQKALSKSKKAQEVEVLLSENEMLQAKLHSQEEDFRLQNSTLMAEFSKLCSQMEQLEQENQQLKEGAAGAGVAQAGPLVDGELLRLQAENTALQKNVAALQERYGKEAGKFSAVSEGQGDPPGGLAPTVLAPMPLAEVELKWEMEKEEKRLLWEQLQGLESSKQAETSRLQEELAKLSEKLKKKQESFCRLQTEKETLFNDSRNKIEELQQRKEADHKAQLARTQKLQQELEAANQSLAELRDQRQGERLEHAAALRALQDQVSIQSADAQEQVEGLLAENNALRTSLAALEQIQTAKTQELNMLREQTTGLAAELQQQQAEYEDLMGQKDDLNSQLQESLRANSRLLEQLQEIGQEKEQLTQELQEARKSAEKRKAMLDELAMETLQEKSQHKEELGAVRLRHEKEVLGVRARYERELRELHEDKKRQEEELRGQIREEKARTRELETLQQTVEELQAQVHSMDGAKGWFERRLKEAEESLQQQQQEQEEALKQCREQHAAELKGKEEELQDVRDQLEQAQEERDCHLKTISSLKQEVKDTVDGQRILEKKGSAALKDLKRQLHLERKRADKLQERLQDILTNSKSRSGLEELVLSEMNSPSRTQTGDSSSISSFSYREILREKESSAVPARSLSSSPQAQPPRPAELSDEEVAELFQRLAETQQEKWMLEEKVKHLEVSSASMAEDLCRKSAIIETYVMDSRIDVSVAAGHTDRSGLGSVLRDLVKPGDENLREMNKKLQNMLEEQLTKNMHLHKDMEVLSQEIVRLSKECVGPPDPDLEPGETS [GRIPAP1]”, the “solubility in G1/S (log2)” value with HeLa Kyoto [1] turned out to be 0.476. Besides, the melting temperature in the data set on HeLa Kyoto [2] (cell cycle stage: G1/S) was determined as 49.3 °C; in the data set on HeLa Kyoto [2] (cell cycle stage: mitosis) it was 49.8 °C. In the data set with HeLa Kyoto [3], the “solubility change mitosis (log2)” value was -0.112. Moreover, the thermal stability score with HeLa Kyoto [4] (setting [5]) is 0.674; in the data set on HeLa Kyoto [4] (cell cycle stage: mitosis), -0.142.
Consider “MAQESPKNSAAEIPVTSNGEVDDSREHSFNRDLKHSLPSGLGLSETQITSHGFDNTKEGVIEAGAFQGSPAPPLPSVMSPSRVAASRLAQQGSDLIVPAGGQRTQTKSGPVILADEIKNPAMEKLELVRKWSLNTYKCTRQIISEKLGRGSRTVDLELEAQIDILRDNKKKYENILKLAQTLSTQLFQMVHTQRQLGDAFADLSLKSLELHEEFGYNADTQKLLAKNGETLLGAINFFIASVNTLVNKTIEDTLMTVKQYESARIEYDAYRTDLEELNLGPRDANTLPKIEQSQHLFQAHKEKYDKMRNDVSVKLKFLEENKVKVLHNQLVLFHNAIAAYFAGNQKQLEQTLKQFHIKLKTPGVDAPSWLEEQ [ARFIP1]”, for which the “solubility in G1/S (log2)” value in the data set on HeLa Kyoto [1] amounted to 0.623. The melting temperature was 51.2 °C in the data set with HeLa Kyoto [2] (cell cycle stage: G1/S) and 50.9 °C in the data set on HeLa Kyoto [2] (cell cycle stage: mitosis). In the data set with HeLa Kyoto [3], the “solubility change mitosis (log2)” value was -0.00419. In addition, the thermal stability score was -0.0158 with HeLa Kyoto [4] (setting [5]) and 0.558 in the data set on HeLa Kyoto [4] (cell cycle stage: mitosis).

(Values after the supplement of paper PMC5998384.)
